Reference: PMC6294747, “Plasmodium falciparum infected erythrocytes can bind to host receptors integrins αVβ3 and αVβ6 through DBLδ1_D4 domain of PFL2665c PfEMP1 protein” (Scientific Reports, 2018)

Columns and labels:
[1] = target: T1, integrin αVβ3 (R&D Systems, Cat #3050-AV) (human, UniProt P06756 31-1048; P05106 27-718, biotinylated (for the bead assays; sites not stated) | biotinylated (for the bead assays; sites not stated)); assay: Bio-Plex bead binding assay, initial velocities with Lineweaver-Burk plot; avidity constants; beads with immobilised PFL2665c DBLδ1_D4; biotinylated integrin at 3, 6 and 12 µg/ml, 0, 10, 30 min (αVβ3) or 0, 5, 15 min (αVβ6); 1xTBS, 1 mM CaCl2, 1 mM MgCl2; streptavidin-PE; corrected for HisAdEx; conditions: both partners purified
T1 construct: integrin alpha-V chain of soluble recombinant αVβ3; integrin beta-3 chain of soluble recombinant αVβ3; Molecular weight 191.3 kDa according to the manufacturer; Biotinylated when used in solution on beads; immobilised on Petri dishes for the adhesion assays; also called αVβ3 integrin; soluble recombinant αVβ3; source: bought: R&D Systems, Cat #3050-AV

[2] = target: T2, integrin αVβ6 (R&D Systems, Cat #3817-AV) (UniProt P06756 31-1048; P18564 22-709, biotinylated (for the bead assays; sites not stated) | biotinylated (for the bead assays; sites not stated)); assay: as above; conditions: both partners purified
T2 construct: integrin alpha-V chain of soluble recombinant αVβ6; integrin beta-6 chain of soluble recombinant αVβ6; Molecular weight 189.1 kDa according to the manufacturer; Biotinylated when used in solution on beads; immobilised on Petri dishes for the adhesion assays; also called recombinant αVβ6; source: bought: R&D Systems, Cat #3817-AV

B1: DBLδ1_D4 domain of PFL2665c PfEMP1 (single domain) (domain or fragment)
chain: GDDLKQACSTKYGPKAPTSWKCVPSGVSTATSGEGGDAKSRERREAGVPTATSSGNTTGGGKDGATGGSICVPPRRRRLYVGGLTKWAKKYTGNTGESKSQEGVLQTKAVVDGKANAEGGGQKGARGPNGGTEGANSGKGAQQQQEQQQEQQQEQQQQQQQQQQQQPHSTDSSSSPPSSNPRDVDLRNAFVESAAIETFFLWDRYKKEKEKEKEDIEKNGQDTVAYTSSVEKDPQEELQRGDIPDGFLRQMFYTLGDYRDILYSGDKENGNKYMLVDDIKDISDKIKSILNSDVGQKTTAKQWWDDNGQHIWNGMIYALTYNTDTPSGDKPTQIDEVRAQLWDEKEKKPKKTDNDHDYTYENVELKEDDDQSGAKTPSASSGSNDPINNPQLSDFVEIPTYFRWLHEWGSDFCGTRKRMLGKIKHECRGDKVCSGYGENCDDQLKDNPSIFPSLNCPSCGTPCRYYKKWINTKKTEYDKQKSAYEQQQGKCEKENNGAEGNDHDKKFCTRIQNCNEAKDFLKTLGPCRTNDESGKGTLYFDDDTFKH
- Kd [1]: 62 nM
- Kd [2]: 56.4 nM
